{"source": "patent US20260029399A1", "assay_in_all_cases": "cell-based or functional assay", "key": {"[1]": {"molecular_target": "T1, IL-13Rα1 receptor on Jurkat cells (UniProt P78552)", "T1 sequence": "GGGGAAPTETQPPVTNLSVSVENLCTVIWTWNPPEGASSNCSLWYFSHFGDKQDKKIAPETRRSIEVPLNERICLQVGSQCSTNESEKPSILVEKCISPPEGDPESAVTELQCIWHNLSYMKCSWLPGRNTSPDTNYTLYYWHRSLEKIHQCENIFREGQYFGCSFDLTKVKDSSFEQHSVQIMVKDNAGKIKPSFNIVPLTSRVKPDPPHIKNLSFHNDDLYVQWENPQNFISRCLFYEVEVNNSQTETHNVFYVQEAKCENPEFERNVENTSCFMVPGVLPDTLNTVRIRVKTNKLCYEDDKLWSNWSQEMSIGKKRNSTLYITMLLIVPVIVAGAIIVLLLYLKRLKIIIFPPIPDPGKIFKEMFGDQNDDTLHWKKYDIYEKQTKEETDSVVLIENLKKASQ"}, "[2]": {"molecular_target": "CMV C7 TCR on C7 TCR-expressing T cells", "sequence (chain, as listed by the source)": "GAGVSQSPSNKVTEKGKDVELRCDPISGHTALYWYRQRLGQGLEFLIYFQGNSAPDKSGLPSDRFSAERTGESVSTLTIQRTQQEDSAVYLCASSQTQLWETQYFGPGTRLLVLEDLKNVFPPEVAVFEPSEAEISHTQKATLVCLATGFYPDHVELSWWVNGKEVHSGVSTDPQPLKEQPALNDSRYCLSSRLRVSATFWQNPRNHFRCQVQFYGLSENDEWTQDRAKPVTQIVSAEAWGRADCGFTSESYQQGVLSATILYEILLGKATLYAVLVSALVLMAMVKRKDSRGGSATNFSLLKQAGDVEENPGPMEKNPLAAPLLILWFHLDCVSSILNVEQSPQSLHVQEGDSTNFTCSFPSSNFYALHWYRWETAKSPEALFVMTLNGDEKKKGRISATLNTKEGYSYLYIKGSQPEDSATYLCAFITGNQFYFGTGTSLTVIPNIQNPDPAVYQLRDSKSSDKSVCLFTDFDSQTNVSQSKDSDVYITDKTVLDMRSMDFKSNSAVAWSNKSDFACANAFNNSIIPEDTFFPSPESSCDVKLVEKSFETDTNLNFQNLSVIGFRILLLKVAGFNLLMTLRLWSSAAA"}, "[3]": {"molecular_target": "IG4 TCR (variant not stated) on IG4 TCR-expressing T cells"}, "[4]": {"molecular_target": "868 TCR (Beta Chain-P2A-Alpha Chain) on 868 TCR-expressing T cells", "sequence (chain, as listed by the source)": "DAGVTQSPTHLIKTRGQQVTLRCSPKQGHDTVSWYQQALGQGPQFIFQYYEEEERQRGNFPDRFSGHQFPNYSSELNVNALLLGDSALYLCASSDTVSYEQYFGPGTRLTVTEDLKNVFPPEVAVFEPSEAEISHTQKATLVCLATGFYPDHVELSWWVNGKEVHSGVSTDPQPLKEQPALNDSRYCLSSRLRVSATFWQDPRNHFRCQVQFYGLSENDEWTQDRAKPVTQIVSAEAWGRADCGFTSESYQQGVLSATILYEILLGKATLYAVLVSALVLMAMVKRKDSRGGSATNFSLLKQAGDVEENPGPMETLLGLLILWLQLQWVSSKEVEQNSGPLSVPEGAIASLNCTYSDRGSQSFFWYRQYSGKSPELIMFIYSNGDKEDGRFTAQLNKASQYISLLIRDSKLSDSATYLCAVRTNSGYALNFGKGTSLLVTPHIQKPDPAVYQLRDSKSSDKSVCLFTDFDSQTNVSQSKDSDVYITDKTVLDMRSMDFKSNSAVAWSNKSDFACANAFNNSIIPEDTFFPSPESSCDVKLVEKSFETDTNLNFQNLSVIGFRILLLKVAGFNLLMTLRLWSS"}}, "data": [{"substance": "IL-13 - CD8α stalk linker (SEQ ID NO: 4) - PDGFR transmembrane domain, displayed on lentivirus (from UniProt P35225 35-146) (ligand)", "values": [{"measurement": "infection of Jurkat cells bearing the IL13Rα1 receptor (GFP reporter)", "setting": "[1]", "result": 88.5, "unit": "%"}]}, {"substance": "IL-13 - GAPGAS linker (SEQ ID NO: 5) - PDGFR transmembrane domain, displayed on lentivirus (from UniProt P35225 35-146) (ligand)", "values": [{"measurement": "infection of Jurkat cells bearing the IL13Rα1 receptor (GFP reporter)", "setting": "[1]", "result": 1, "unit": "%"}]}, {"substance": "IL-13 - PDGFR linker (SEQ ID NO: 3) - PDGFR transmembrane domain, displayed on lentivirus (from UniProt P35225 35-146) (ligand)", "values": [{"measurement": "infection of Jurkat cells bearing the IL13Rα1 receptor (GFP reporter)", "setting": "[1]", "result": 6.1, "unit": "%"}]}, {"substance": "IL-13 extracellular targeting domain: full-length IL-13 - IgG4 hinge linker - PDGFR transmembrane domain, displayed on lentivirus (from UniProt P35225 35-146) (ligand)", "values": [{"measurement": "transduction (cells expressing the GFP reporter after mixing)", "setting": "[1]", "result": 85.2, "unit": "%"}]}, {"substance": "disulfide-stabilized CMV NLV pMHC displayed on lentivirus (peptide-MHC)", "values": [{"measurement": "transduction rate", "setting": "[2]", "result": 21.8, "unit": "%"}]}, {"substance": "disulfide-stabilized NYESO-1 pMHC displayed on lentivirus (peptide-MHC)", "values": [{"measurement": "transduction rate", "setting": "[3]", "result": 19, "unit": "%"}]}, {"substance": "disulfide-stabilized SL9 pMHC displayed on lentivirus (peptide-MHC)", "values": [{"measurement": "transduction rate", "setting": "[4]", "result": 22.1, "unit": "%"}]}]}
